Source: CN112062838A (UNIV NANJING MEDICAL, dated 2020)
Values joined by “and” are separate entries in the source; they are usually repeats but may differ in a detail not shown here. Equal entries are not always repeated.

B1: 4D8-hFc重组蛋白 (单域抗体4D8, purified) (Fc fusion, not shown: a dimerising Fc or GST)
chain: QVQLVQSGGGLVQPGGSLRLSCAASDFDFYDYEMSWVRQAPGKALEWIGEIHHSGSTYYNPSLKSRVTISRDNSKNTLYLQMNTLRAEDTAIYYCVKDFVGADGPFVFDYWGQGTLVTVSS
B2: 4D8克隆 (4D8噬菌体, phage-displayed single-domain antibody clone) (VHH)
VHH: B1 chain
notes: also called 富集克隆4D8

Tests used:
[1] = target: SARS-CoV-2 spike (D614) on pseudovirus (SARS-CoV-2, UniProt P0DTC2 14-1273); experiment: cell-based or functional assay
[2] = target: T1, SARS-CoV-RBD-hFc (SARS-CoV, UniProt P59594 306-527); experiment: phage ELISA, antigen coated at 5μg/ml, anti-M13 HRP detection
T1 construct: domain: RBD

Row | Binder | 伪病毒中和 IC50 (Luciferase活性, CHO-ACE2细胞) [1] | binding result [2]
1 | B1 | 1.13 μg/ml and 15 nM | –
2 | B2 | – | no binding
